In patent publication US20180016346A1 (Kyowa Kirin, published 2018):

B1: anti-hPSMA monoclonal antibody PI134 antibody (antibody, human IgG1, V domains shown)
VH: QVQLVQSGAEVKKPGASVKVSCKASGYTFTTYDINWVRQATGQGLEWMGWMNPNNGYTGYAQKFQGRVTMTRNTSISTAYMELSSLRSEDTAVYYCARTNWVYWYFDLWGRGTLVTVSS
VL: EIVLTQSPATLSLSPGERATLSCRASQSVSSFLAWYQQKPGQAPRLLIYDASNRATGIPARFSGSGSGTDFTLTISSLEPEDFAVYYCQQRSNWPLTFGPGTKVDIKR
notes: Its VL is the same as that of the E11 antibody
B2: hTRAILR2-hPSMA bispecific antibody E11-CH1-PI101VH antibody (bispecific antibody, IgG4)
heavy: not shown
VL: B1 VL
notes: domain: constant region; The heavy chain is E11 VH, an IgG4 CH1 linker and PI101 VH, followed by the constant region of the vector; All four light chains carry E11 VL
B3: hTRAILR2-hPSMA bispecific antibody E11-CH1-PN170VH antibody (bispecific antibody, IgG4)
heavy: not shown
VL: B1 VL
notes: domain: constant region; The heavy chain is E11 VH, an IgG4 CH1 linker and PN170 VH, followed by the constant region of the vector; All four light chains carry E11 VL
B4: hTRAILR2-hPSMA bispecific antibody fragment E11-CH1-PN7VH F(ab′)2 (bispecific antibody)
heavy: QLQLQESGPGLVKPSETLSLTCTVSGGSIISKSSYWGWIRQPPGKGLEWIGSIYYSGSTFYNPSLKSRVTISVDTSKNQFSLKLSSVTAADTAVYYCARLTVAEFDYWGQGTLVTVSSASTKGPSVFPLAPCSRSTSESTAALGCLVKDYFPEPVTVSWNSGALTSGVHTFPAVLQSSGLYSLSSVVTVPSSSLGTKTYTCNVDHKPSNTKVDKRVEVQLVQSGAEVKKPGASVKVSCKASGYTFTTYDINWVRQATGQGLEWMGWMNPNSGYTGYAQKFQGRVTMTRDTSISTAYMELSSLRSEDTAVYYCARTNWESWYFDLWGRGTLVTVSSASTKGPSVFPLAPCSRSTSESTAALGCLVKDYFPEPVTVSWNSGALTSGVHTFPAVLQSSGLYSLSSVVTVPSSSLGTKTYTCNVDHKPSNTKVDKRVESKYGPPCPPCPDYKDDDDKHHHHHH
VL: B1 VL
notes: CH2 and CH3 are deleted; The heavy chain carries a C-terminal FLAG-tag and His-tag and dimerises through cysteine in the hinge region; All light chains carry E11 VL
B5: hTRAILR2-hPSMA bispecific antibody fragment E11-CH1-PN7VH Fab (bispecific antibody)
heavy: QLQLQESGPGLVKPSETLSLTCTVSGGSIISKSSYWGWIRQPPGKGLEWIGSIYYSGSTFYNPSLKSRVTISVDTSKNQFSLKLSSVTAADTAVYYCARLTVAEFDYWGQGTLVTVSSASTKGPSVFPLAPCSRSTSESTAALGCLVKDYFPEPVTVSWNSGALTSGVHTFPAVLQSSGLYSLSSVVTVPSSSLGTKTYTCNVDHKPSNTKVDKRVEVQLVQSGAEVKKPGASVKVSCKASGYTFTTYDINWVRQATGQGLEWMGWMNPNSGYTGYAQKFQGRVTMTRDTSISTAYMELSSLRSEDTAVYYCARTNWESWYFDLWGRGTLVTVSSASTKGPSVFPLAPCSRSTSESTAALGCLVKDYFPEPVTVSWNSGALTSGVHTFPAVLQSSGLYSLSSVVTVPSSSLGTKTYTCNVDHKPSNTKVDKRVDYKDDDDKHHHHHH
VL: B1 VL
notes: The hinge region is deleted from E11-CH1-PN7VH F(ab′)2; The light chains carry E11 VL, as in the F(ab′)2
B6: hTRAILR2-hPSMA heterobispecific antibody E11_PN7 Hetero antibody (bispecific antibody, human IgG1)
heavy 1: not shown
heavy 2: not shown
VL: B1 VL
notes: also called hE11_PN7 Hetero antibody

Columns and labels:
[1] = target: T1, human prostate specific membrane antigen (hPSMA), membrane form on cells (human, UniProt Q04609 1-750); experiment: flow cytometry on hPSMA/L929 cells (FIG. 2)
T1 construct: endogenous on LNCaP clone FGC cells; also called membrane hPSMA
T1 sequence (Q04609 whole entry): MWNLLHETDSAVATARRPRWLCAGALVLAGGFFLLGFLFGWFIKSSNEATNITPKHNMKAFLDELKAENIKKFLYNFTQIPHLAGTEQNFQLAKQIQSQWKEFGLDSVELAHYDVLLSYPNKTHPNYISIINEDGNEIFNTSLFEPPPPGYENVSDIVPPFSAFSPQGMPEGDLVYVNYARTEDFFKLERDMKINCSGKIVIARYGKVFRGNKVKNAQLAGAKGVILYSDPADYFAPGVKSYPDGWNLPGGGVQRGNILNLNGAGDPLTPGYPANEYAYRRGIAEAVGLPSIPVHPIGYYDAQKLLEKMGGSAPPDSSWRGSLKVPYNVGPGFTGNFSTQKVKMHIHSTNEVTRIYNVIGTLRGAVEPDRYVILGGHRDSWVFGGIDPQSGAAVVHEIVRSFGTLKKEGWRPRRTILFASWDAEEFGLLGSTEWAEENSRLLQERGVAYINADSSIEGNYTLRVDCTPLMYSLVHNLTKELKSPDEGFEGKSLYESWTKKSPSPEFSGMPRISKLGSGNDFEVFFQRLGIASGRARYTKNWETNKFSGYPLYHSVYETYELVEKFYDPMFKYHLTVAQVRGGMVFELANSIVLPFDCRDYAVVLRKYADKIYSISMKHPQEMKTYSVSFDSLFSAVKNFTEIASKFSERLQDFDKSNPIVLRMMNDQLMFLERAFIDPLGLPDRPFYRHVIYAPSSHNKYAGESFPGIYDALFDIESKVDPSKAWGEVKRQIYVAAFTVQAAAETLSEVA
Experimental: (§1) The cells were suspended in a staining buffer [PBS containing 0.1% NaN₃ and 1% FBS] at a concentration of 1×10⁶ cells/mL, and dispensed in a round-bottom 96-well plate (manufactured by Becton Dickinson) by 100 μL/well. After the centrifugation (2000 rpm, 4° C., 2 minutes), each antibody obtained in Example 7 was added to the pellet obtained by removing the supernatant, and suspended, and then left stand at ice temperature for 30 minutes.
(§2) After the further centrifugation (2000 rpm, 4° C., 2 minutes), the pellet obtained by removing the supernatant was washed twice with 200 μL/well of the staining buffer. Thereafter, 1 μg/mL of RPE fluorescently labeled mouse anti-human antibody (hinge region) clone 4E3 antibody (manufactured by Southern Bioblot) was added thereto by 50 μL/well and incubated at ice temperature for 30 minutes. After washing twice with the staining buffer, the cells were suspended in 200 μL/well of the staining buffer, and the fluorescence intensity of each cell was measured with the flow cytometer FACSCANTO II (manufactured by Becton Dickinson). The obtained results are illustrated in FIG. 2 and FIG. 3.
hPSMA/L929 cells were stained with anti-TRAILR2 monoclonal antibody E11 antibody, anti-hPSMA monoclonal antibody PI134 antibody, or hTRAILR2-hPSMA bispecific antibody E11-CH1-PI101VH antibody, E11-CH1-PN7VH antibody or E11-CH1-PN170VH antibody. The obtained results are illustrated in FIG. 2.

[2] = target: T2, human TRAILR2 (tumor necrosis factor-related apoptosis inducing ligand receptor 2) (human, UniProt O14763 56-440); experiment: flow cytometry on hTRAILR2/L929 cells (FIG. 3)
T2 construct: whole, on cells; The hTRAILR2/L929 cells are only cited from WO 2002/094880, and the construct expressed on them is not described here; On PC3 and LNCaP clone FGC cells the receptor is endogenous; also called hTRAILR2; death receptor 5
Experimental: as §1
as §2, with “3. […]” for “3.”

[3] = target: T1, human prostate specific membrane …; experiment: flow cytometry

Binder | binding result [1] | binding result [2] | binding result [3]
B1 | binds | no binding | –
B2 | binds | – | –
B3 | binds | – | –
B4 | – | – | binds
B5 | – | – | binds
B6 | – | – | binds
